Measurements published in patent US20190276541A1 (Seagen, published 2019).

Biological target: T1, CD3 on human T cells (human, UniProt P07766 23-207)
T1 construct: whole, on cells; The native CD3 complex on primary T cells, which were gated with anti-CD2-FITC; also called T cell receptor CD3; CD3 complex
Assay: flow cytometry on human T cells in PBMCs, anti-Fc Alexa 647 secondary
Description: T cells are used to assess binding of antibodies to CD3. For T cell binding assay, PBMCs are isolated from 100 ml of human blood sample using the protocol described previously. […] 50 μl of cells are added to each well of an assay plate. […] Equal volumes of PBMCs and bispecific antibody dilutions are mixed to produce a binding curve. Anti-CD2-FITC (BD Biosciences, San Jose, Calif.) is added to each well to selectively stain T cells. The plate is incubated for 1 hour at 4° C. Cells are washed and pelleted three times with FACS buffer consisting of PBS, 5% FBS and 0.05% sodium azide. […] Cells are washed and pelleted three times again with FACS buffer. Cells are then resuspended in 200 μL FACS buffer and analyzed on a BD ACCURI™ C6 flow cytometer (BD Biosciences, San Jose, Calif.).

T1 sequence (P07766 23-207): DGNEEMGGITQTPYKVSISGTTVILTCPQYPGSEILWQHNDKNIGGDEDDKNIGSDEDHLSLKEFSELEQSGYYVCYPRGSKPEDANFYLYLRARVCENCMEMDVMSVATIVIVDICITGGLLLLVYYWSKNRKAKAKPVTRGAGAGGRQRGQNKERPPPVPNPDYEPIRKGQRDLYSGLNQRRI

B1: 2G12-2B2 having VL0 and VH3 variable domains (antibody, V domains shown)
VH: EVQLVQSGAEVKKPGASVKVSCKASGYTFTDHAIHWVRQAPGQGLEWMGYFSPGNDDIKYNEKFRGRVTMTADKSSSTAYMELRSLRSDDTAVYFCKRSLSTPYWGQGTLVTVSS
VL: DIVMTQSPDSLAVSLGERATINCKSSQSLLNRGNHKNYLTWYQQKPGQPPKLLIYWASTRESGVPDRFSGSGSGTDFTLTISSLQAEDVAVYYCQNDYTYPYTFGQGTKVEIK
notes: also called 2G12-2B2 control; 2G12-2B2 comprising VL0 and VH3
  binding result: no binding (tested: 0 to 10 µg per 500,000 cells)
